This passage reports K0.5 and kcat/Km results from article PMC5241874.

Broadly, the kcat/Km is the turnover number divided by the Michaelis constant.

B1: αγ heterodimer of human NAD-IDH (IDH3) (Homo sapiens; P51553:R136A) (protein)
chain 1: TGGVQTVTLIPGDGIGPEISAAVMKIFDAAKAPIQWEERNVTAIQGPGGKWMIPSEAKESMDKNKMGLKGPLKTPIAAGHPSMNLLLRKTFDLYANVRPCVSIEGYKTPYTDVNIVTIRENTEGEYSGIEHVIVDGVVQSIKLITEGASKRIAEFAFEYARNNHRSNVTAVHKANIMRMSDGLFLQKCREVAESCKDIKFNEMYLDTVCLNMVQDPSQFDVLVMPNLYGDILSDLCAGLIGGLGVTPSGNIGANGVAIFESVHGTAPDIAGKDMANPTALLLSAVMMLRHMGLFDHAARIEAACFATIKDGKSLTKDLGGNAKCSDFTEEICRRVKDLD
chain 2: FSEQTIPPSAKYGGRHTVTMIPGDGIGPELMLHVKSVFRHACVPVDFEEVHVSSNADEEDIRNAIMAIRRNRVALKGNIETNHNLPPSHKSRNNILATSLDLYANVIHCKSLPGVVTRHKDIDILIVRENTEGEYSSLEHESVAGVVESLKIITKAKSLRIAEYAFKLAQESGRKKVTAVHKANIMKLGDGLFLQCCREVAARYPQITFENMIVDNTTMQLVSRPQQFDVMVMPNLYGNIVNNVCAGLVGGPGLVAGANYGHVYAVFETATRNTGKSIANKNIANPTATLLASCMMLDHLKLHSYATSIRKAVLASMDNENMHTPDIGGQGTTSEAIQDVIRHIRVINGRAVEA
notes: alpha and gamma co-expressed in E. coli BL21(DE3) from pQlinkN; gamma C-terminal TEV-His6, His6 cleaved by TEV; 80 kDa heterodimer (dimer of heterodimers at high concentration)
B2: αγ heterodimer of human NAD-IDH (IDH3) (Homo sapiens; P51553:Y276F) (protein)
chain 1: TGGVQTVTLIPGDGIGPEISAAVMKIFDAAKAPIQWEERNVTAIQGPGGKWMIPSEAKESMDKNKMGLKGPLKTPIAAGHPSMNLLLRKTFDLYANVRPCVSIEGYKTPYTDVNIVTIRENTEGEYSGIEHVIVDGVVQSIKLITEGASKRIAEFAFEYARNNHRSNVTAVHKANIMRMSDGLFLQKCREVAESCKDIKFNEMYLDTVCLNMVQDPSQFDVLVMPNLYGDILSDLCAGLIGGLGVTPSGNIGANGVAIFESVHGTAPDIAGKDMANPTALLLSAVMMLRHMGLFDHAARIEAACFATIKDGKSLTKDLGGNAKCSDFTEEICRRVKDLD
chain 2: FSEQTIPPSAKYGGRHTVTMIPGDGIGPELMLHVKSVFRHACVPVDFEEVHVSSNADEEDIRNAIMAIRRNRVALKGNIETNHNLPPSHKSRNNILRTSLDLYANVIHCKSLPGVVTRHKDIDILIVRENTEGEYSSLEHESVAGVVESLKIITKAKSLRIAEYAFKLAQESGRKKVTAVHKANIMKLGDGLFLQCCREVAARYPQITFENMIVDNTTMQLVSRPQQFDVMVMPNLFGNIVNNVCAGLVGGPGLVAGANYGHVYAVFETATRNTGKSIANKNIANPTATLLASCMMLDHLKLHSYATSIRKAVLASMDNENMHTPDIGGQGTTSEAIQDVIRHIRVINGRAVEA
notes: as for B1
B3: αγ heterodimer of human NAD-IDH (IDH3) (Homo sapiens; P51553:R311A) (protein)
chain 1: TGGVQTVTLIPGDGIGPEISAAVMKIFDAAKAPIQWEERNVTAIQGPGGKWMIPSEAKESMDKNKMGLKGPLKTPIAAGHPSMNLLLRKTFDLYANVRPCVSIEGYKTPYTDVNIVTIRENTEGEYSGIEHVIVDGVVQSIKLITEGASKRIAEFAFEYARNNHRSNVTAVHKANIMRMSDGLFLQKCREVAESCKDIKFNEMYLDTVCLNMVQDPSQFDVLVMPNLYGDILSDLCAGLIGGLGVTPSGNIGANGVAIFESVHGTAPDIAGKDMANPTALLLSAVMMLRHMGLFDHAARIEAACFATIKDGKSLTKDLGGNAKCSDFTEEICRRVKDLD
chain 2: FSEQTIPPSAKYGGRHTVTMIPGDGIGPELMLHVKSVFRHACVPVDFEEVHVSSNADEEDIRNAIMAIRRNRVALKGNIETNHNLPPSHKSRNNILRTSLDLYANVIHCKSLPGVVTRHKDIDILIVRENTEGEYSSLEHESVAGVVESLKIITKAKSLRIAEYAFKLAQESGRKKVTAVHKANIMKLGDGLFLQCCREVAARYPQITFENMIVDNTTMQLVSRPQQFDVMVMPNLYGNIVNNVCAGLVGGPGLVAGANYGHVYAVFETATANTGKSIANKNIANPTATLLASCMMLDHLKLHSYATSIRKAVLASMDNENMHTPDIGGQGTTSEAIQDVIRHIRVINGRAVEA
notes: as for B1
B4: αγ heterodimer of human NAD-IDH (IDH3) (Homo sapiens; P51553:K190A) (protein)
chain 1: TGGVQTVTLIPGDGIGPEISAAVMKIFDAAKAPIQWEERNVTAIQGPGGKWMIPSEAKESMDKNKMGLKGPLKTPIAAGHPSMNLLLRKTFDLYANVRPCVSIEGYKTPYTDVNIVTIRENTEGEYSGIEHVIVDGVVQSIKLITEGASKRIAEFAFEYARNNHRSNVTAVHKANIMRMSDGLFLQKCREVAESCKDIKFNEMYLDTVCLNMVQDPSQFDVLVMPNLYGDILSDLCAGLIGGLGVTPSGNIGANGVAIFESVHGTAPDIAGKDMANPTALLLSAVMMLRHMGLFDHAARIEAACFATIKDGKSLTKDLGGNAKCSDFTEEICRRVKDLD
chain 2: FSEQTIPPSAKYGGRHTVTMIPGDGIGPELMLHVKSVFRHACVPVDFEEVHVSSNADEEDIRNAIMAIRRNRVALKGNIETNHNLPPSHKSRNNILRTSLDLYANVIHCKSLPGVVTRHKDIDILIVRENTEGEYSSLEHESVAGVVESLAIITKAKSLRIAEYAFKLAQESGRKKVTAVHKANIMKLGDGLFLQCCREVAARYPQITFENMIVDNTTMQLVSRPQQFDVMVMPNLYGNIVNNVCAGLVGGPGLVAGANYGHVYAVFETATRNTGKSIANKNIANPTATLLASCMMLDHLKLHSYATSIRKAVLASMDNENMHTPDIGGQGTTSEAIQDVIRHIRVINGRAVEA
notes: as for B1
B5: αγ heterodimer of human NAD-IDH (IDH3) (Homo sapiens; P51553:R167A) (protein)
chain 1: TGGVQTVTLIPGDGIGPEISAAVMKIFDAAKAPIQWEERNVTAIQGPGGKWMIPSEAKESMDKNKMGLKGPLKTPIAAGHPSMNLLLRKTFDLYANVRPCVSIEGYKTPYTDVNIVTIRENTEGEYSGIEHVIVDGVVQSIKLITEGASKRIAEFAFEYARNNHRSNVTAVHKANIMRMSDGLFLQKCREVAESCKDIKFNEMYLDTVCLNMVQDPSQFDVLVMPNLYGDILSDLCAGLIGGLGVTPSGNIGANGVAIFESVHGTAPDIAGKDMANPTALLLSAVMMLRHMGLFDHAARIEAACFATIKDGKSLTKDLGGNAKCSDFTEEICRRVKDLD
chain 2: FSEQTIPPSAKYGGRHTVTMIPGDGIGPELMLHVKSVFRHACVPVDFEEVHVSSNADEEDIRNAIMAIRRNRVALKGNIETNHNLPPSHKSRNNILRTSLDLYANVIHCKSLPGVVTRHKDIDILIVAENTEGEYSSLEHESVAGVVESLKIITKAKSLRIAEYAFKLAQESGRKKVTAVHKANIMKLGDGLFLQCCREVAARYPQITFENMIVDNTTMQLVSRPQQFDVMVMPNLYGNIVNNVCAGLVGGPGLVAGANYGHVYAVFETATRNTGKSIANKNIANPTATLLASCMMLDHLKLHSYATSIRKAVLASMDNENMHTPDIGGQGTTSEAIQDVIRHIRVINGRAVEA
notes: as for B1
B6: αγ heterodimer of human NAD-IDH (IDH3) (Homo sapiens; P50213:Y255F) (protein)
chain 1: TGGVQTVTLIPGDGIGPEISAAVMKIFDAAKAPIQWEERNVTAIQGPGGKWMIPSEAKESMDKNKMGLKGPLKTPIAAGHPSMNLLLRKTFDLYANVRPCVSIEGYKTPYTDVNIVTIRENTEGEYSGIEHVIVDGVVQSIKLITEGASKRIAEFAFEYARNNHRSNVTAVHKANIMRMSDGLFLQKCREVAESCKDIKFNEMYLDTVCLNMVQDPSQFDVLVMPNLFGDILSDLCAGLIGGLGVTPSGNIGANGVAIFESVHGTAPDIAGKDMANPTALLLSAVMMLRHMGLFDHAARIEAACFATIKDGKSLTKDLGGNAKCSDFTEEICRRVKDLD
chain 2: FSEQTIPPSAKYGGRHTVTMIPGDGIGPELMLHVKSVFRHACVPVDFEEVHVSSNADEEDIRNAIMAIRRNRVALKGNIETNHNLPPSHKSRNNILRTSLDLYANVIHCKSLPGVVTRHKDIDILIVRENTEGEYSSLEHESVAGVVESLKIITKAKSLRIAEYAFKLAQESGRKKVTAVHKANIMKLGDGLFLQCCREVAARYPQITFENMIVDNTTMQLVSRPQQFDVMVMPNLYGNIVNNVCAGLVGGPGLVAGANYGHVYAVFETATRNTGKSIANKNIANPTATLLASCMMLDHLKLHSYATSIRKAVLASMDNENMHTPDIGGQGTTSEAIQDVIRHIRVINGRAVEA
notes: as for B1
B7: αγ heterodimer of human NAD-IDH (IDH3) (Homo sapiens; P51553:Y174F) (protein)
chain 1: TGGVQTVTLIPGDGIGPEISAAVMKIFDAAKAPIQWEERNVTAIQGPGGKWMIPSEAKESMDKNKMGLKGPLKTPIAAGHPSMNLLLRKTFDLYANVRPCVSIEGYKTPYTDVNIVTIRENTEGEYSGIEHVIVDGVVQSIKLITEGASKRIAEFAFEYARNNHRSNVTAVHKANIMRMSDGLFLQKCREVAESCKDIKFNEMYLDTVCLNMVQDPSQFDVLVMPNLYGDILSDLCAGLIGGLGVTPSGNIGANGVAIFESVHGTAPDIAGKDMANPTALLLSAVMMLRHMGLFDHAARIEAACFATIKDGKSLTKDLGGNAKCSDFTEEICRRVKDLD
chain 2: FSEQTIPPSAKYGGRHTVTMIPGDGIGPELMLHVKSVFRHACVPVDFEEVHVSSNADEEDIRNAIMAIRRNRVALKGNIETNHNLPPSHKSRNNILRTSLDLYANVIHCKSLPGVVTRHKDIDILIVRENTEGEFSSLEHESVAGVVESLKIITKAKSLRIAEYAFKLAQESGRKKVTAVHKANIMKLGDGLFLQCCREVAARYPQITFENMIVDNTTMQLVSRPQQFDVMVMPNLYGNIVNNVCAGLVGGPGLVAGANYGHVYAVFETATRNTGKSIANKNIANPTATLLASCMMLDHLKLHSYATSIRKAVLASMDNENMHTPDIGGQGTTSEAIQDVIRHIRVINGRAVEA
notes: as for B1
B8: αγ heterodimer of human NAD-IDH (IDH3) (Homo sapiens; P51553:D229A) (protein)
chain 1: TGGVQTVTLIPGDGIGPEISAAVMKIFDAAKAPIQWEERNVTAIQGPGGKWMIPSEAKESMDKNKMGLKGPLKTPIAAGHPSMNLLLRKTFDLYANVRPCVSIEGYKTPYTDVNIVTIRENTEGEYSGIEHVIVDGVVQSIKLITEGASKRIAEFAFEYARNNHRSNVTAVHKANIMRMSDGLFLQKCREVAESCKDIKFNEMYLDTVCLNMVQDPSQFDVLVMPNLYGDILSDLCAGLIGGLGVTPSGNIGANGVAIFESVHGTAPDIAGKDMANPTALLLSAVMMLRHMGLFDHAARIEAACFATIKDGKSLTKDLGGNAKCSDFTEEICRRVKDLD
chain 2: FSEQTIPPSAKYGGRHTVTMIPGDGIGPELMLHVKSVFRHACVPVDFEEVHVSSNADEEDIRNAIMAIRRNRVALKGNIETNHNLPPSHKSRNNILRTSLDLYANVIHCKSLPGVVTRHKDIDILIVRENTEGEYSSLEHESVAGVVESLKIITKAKSLRIAEYAFKLAQESGRKKVTAVHKANIMKLGAGLFLQCCREVAARYPQITFENMIVDNTTMQLVSRPQQFDVMVMPNLYGNIVNNVCAGLVGGPGLVAGANYGHVYAVFETATRNTGKSIANKNIANPTATLLASCMMLDHLKLHSYATSIRKAVLASMDNENMHTPDIGGQGTTSEAIQDVIRHIRVINGRAVEA
notes: as for B1

Substrate in one data set: O=C(O)CC(C(=O)O)C(O)C(=O)O
The data set can be described thus: purified protein. The settings on record: no activators, 2 mM Mn2+, 3.2 mM NAD, 33 mM Tris-acetate pH 7.4, 25 °C, Hill 2.0, racemic DL-ICT varied, Hill 1.0. In kind it is biochemical, Homo sapiens.
As to B1, the K0.5 came to 4.51 ± 0.43 mM and the kcat/Km was 330 ± 10 M⁻¹ s⁻¹.

Turning to B2, the K0.5 was 14.8 ± 0.5 mM and the kcat/Km is 250 ± 10 M⁻¹ s⁻¹.

Regarding B3, the K0.5 was 19.3 ± 1.0 mM and the kcat/Km worked out at 210 ± 10 M⁻¹ s⁻¹.

The data set is the same for the next values; noted with them: no activators, 2 mM Mn2+, 3.2 mM NAD, 33 mM Tris-acetate pH 7.4, 25 °C, Hill 2.0, racemic DL-ICT varied, Hill 1.1.
Consider B4, for which the K0.5 was 8.12 ± 0.16 mM and the kcat/Km amounted to 90 ± 2 M⁻¹ s⁻¹.

As for B5, the K0.5 came out at 8.57 ± 0.42 mM and the kcat/Km turned out to be 260 ± 10 M⁻¹ s⁻¹.

For the protein B6, the K0.5 turned out to be 14.5 ± 0.9 mM and the kcat/Km turned out to be 46 ± 2 M⁻¹ s⁻¹.

B7: the K0.5 stood at 8.80 ± 0.54 mM and the kcat/Km was found to be 270 ± 10 M⁻¹ s⁻¹.

Regarding B8, the K0.5 is recorded as 10.2 ± 0.6 mM and the kcat/Km is 730 ± 40 M⁻¹ s⁻¹.
